The values below come from patent US7811569.

This assay addresses native MSP-3 antigen of Plasmodium falciparum clone 3D7 schizonts and merozoites (Plasmodium falciparum). Briefly: flow cytometry on ethanol-fixed permeabilized schizonts, FITC anti-human Fab.

Regarding “control antibody against HibCP in the IgG1 format”, the percent of events under the bar M1 was determined as 4%.

The substance control Fab against HibCP showed a percent of events under the bar M1 of 2%.
